Experimental data from the supplement of paper PMC10126150.
± gives the standard deviation of the averaged measurements.

test system: ATP; experiment: switch fluorescence ratio, 500 uM ATP over buffer (Cy3 cluster intensity, sum of 5 cycles each) (fold (ratio)); higher = stronger signal-on switching upon ATP binding; sequences stand for … in TCGTCGGCAGCGTCAGATGTGTATAAGAGACAGTTTTTTTTTTTTTTTTTTTTTTTTT…TC; conditions: aptamer strand: ATP DNA aptamer (quencher-CACCTGGGGGAGTATTGCGGAGGAAGG + anchor), 100 nM annealed; ATP concentration: 500 uM
In short: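 Cy3-labelled switching-strand clusters on a modified Illumina MiSeq flow-cell were annealed to 100 nM quencher-labelled ATP aptamer and imaged first in selection buffer, then after 15 min with 500 uM ATP at 22 °C. NaOH stripping and re-annealing separated each of five buffer/ATP cycles, and clusters outside 100-1000 RFU were excluded. The fluorescence ratio sums target-cycle Cy3 intensity over buffer-cycle Cy3 intensity per cluster and averages it per switch-domain sequence.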
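Note: ATP exposure 15 min at 22 °C before imaging.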

In order of rising switch fluorescence ratio:
1. AGTGGGAAGG  0.956 ± 0.021
2. AGTGGGAATG  0.9595 ± 0.0078
3. AGTCGGGATG  0.963 ± 0.035
4. AGTCCGGACC  0.967 ± 0.026
5. AGTGATAAGT  0.969 ± 0.015
6. AGTCGGGTTC  0.973 ± 0.032
7. AGTGAGCTGG  0.9733 ± 0.0031
8. AGTCTCTGGG  0.974 ± 0.024
9. AGTTAGACAG  0.9737 ± 0.0062
10. AGTGATGTTC  0.976 ± 0.016
11. AGTCCTTATT  0.977 ± 0.021
12. AGTAGGGAGT  0.9784 ± 0.0094
13. AGTGCTTTTG  0.978 ± 0.018
14. AGTAGTTTTG  0.98 ± 0.014
15. AGTCAGAGTA  0.9821 ± 0.004
16. AGTGGGGTGG  0.982 ± 0.043
17. AGTGGTGAGG  0.983 ± 0.016
18. AGTGGCATGC  0.985 ± 0.023
19. AGTCTGAAGA  0.987 ± 0.036
20. AGTGGGTAAG  0.9869 ± 0.0085
21. AGTTAGTTAG  0.987 ± 0.011
22. AGTGAATTTT  0.988 ± 0.064
23. AGTGTATACT  0.9886 ± 0.0021
24. AGTGCGGGCG  0.9895 ± 0.003
25. AGTGGGTTGG  0.99 ± 0.014
26. AGTATGGTGC  0.991 ± 0.029
27. AGTCTTAGCA  0.991 ± 0.049
28. AGTGAATGGA  0.991 ± 0.024
29. AGTAGGGTTT  0.9932 ± 0.0097
30. AGTCGTCACG  0.9926 ± 0.0099
31. AGTCTAAGGG  0.993 ± 0.013
32. AGTGGACGGG  0.994 ± 0.023
33. AGTTAAATTT  0.994 ± 0.035
34. AGTGGTTTTT  0.9946 ± 0.0055
35. AGTTAAAAAT  0.996 ± 0.022
36. AGTAGCTTTT  0.997 ± 0.016
37. AGTGCTGTGC  0.997 ± 0.012
38. AGTAGGAGT  0.998 ± 0.033
39. AGTATCCCTA  0.998 ± 0.021
40. AGTATTACGG  0.9989 ± 0.0088
41. AGTCATTTTA  0.999 ± 0.028
42. AGTCTGTTTC  0.999 ± 0.024
43. AGTGTTTGTT  0.9995 ± 0.0052
44. AGTAGGTGGC  1 ± 0.052
45. AGTATCAGAA  1 ± 0.042
46. AGTATTTATT  1 ± 0.03
47. AGTCTGCGCG  1.002 ± 0.007
48. AGTGCGTTTA  1 ± 0.014
49. AGTGGGACGC  1 ± 0.044
50. AGTGGGAGGG  1 ± 0.02
51. AGTGGGAGTT  1.002 ± 0.0081
52. AGTGTGAGCT  1 ± 0.037
53. AGTTAAAATA  1 ± 0.021
54. AGTTAATAAA  1 ± 0.0019
55. AGTAGAGGAC  1.01 ± 0.045
56. AGTAGGGGGT  1.01 ± 0.022
57. AGTAGTGTTG  1.01 ± 0.068
58. AGTATGAGTA  1.015 ± 0.0088
59. AGTATTGGGC  1.008 ± 0.01
60. AGTCTGCCGG  1.01 ± 0.028
61. AGTGCTTTTT  1.01 ± 0.012
62. AGTGGTATGA  1.01 ± 0.048
63. AGTGTGGTTA  1.005 ± 0.01
64. AGTGTGTGGC  1.01 ± 0.016
65. AGTTAGTAAG  1.01 ± 0.04
66. AGTTATGTAG  1.01 ± 0.052
67. AGTAGCGGTC  1.02 ± 0.057
68. AGTGGGGGGA  1.02 ± 0.028
69. AGTGTAGGGG  1.02 ± 0.028
70. AGTGTTAGGA  1.02 ± 0.011
71. AGTAGGGTCC  1.03 ± 0.029
72. AGTCAACCGG  1.03 ± 0.034
73. AGTCCTAGGT  1.03 ± 0.022
74. AGTGGGGCCA  1.03 ± 0.044
75. AGTGGGGTG  1.03 ± 0.026
76. AGTGTGGGGC  1.03 ± 0.0097
77. AGTACGGGGA  1.04 ± 0.053
78. AGTCCGGGGT  1.04 ± 0.025
79. AGTGGAATTC  1.04 ± 0.012
80. AGTGTACTCG  1.04 ± 0.056
81. AGTGTGGGCT  1.04 ± 0.021
82. AGTTACCCGA  1.04 ± 0.011
83. AGTTAGGGCG  1.04 ± 0.058
84. AGTTAGGTGT  1.04 ± 0.044
85. AGTACTGCGA  1.05 ± 0.035
86. AGTCACTTAG  1.05 ± 0.015
87. AGTGTTGTAT  1.05 ± 0.044
88. AGTGACCCCT  1.06 ± 0.035
89. AGTAGGGTGC  1.07 ± 0.12
90. AGTGCGGGGC  1.07 ± 0.013
91. AGTGACGCTC  1.08 ± 0.024
92. AGTGTACGGG  1.083 ± 0.0077
93. AGTTACGGGA  1.1 ± 0.03
94. AGTGGAATGC  1.12 ± 0.032
95. AGTGACACCT  1.15 ± 0.054
96. AGTTACGGAC  1.36 ± 0.017
97. AGTAGCATTC  1.724 ± 0.013
98. AGTGACGTAC  1.77 ± 0.075
99. AGTGCAGGTG  2.438 ± 0.015
100. AGTTAGCAAT  2.45 ± 0.11
